Consider 2 molecules from PMC9860250.

Read-outs that look alike come from different tables or passages of the source.

The target of data set [1] is T1, Lsm2-8 heteroheptameric ring (UniProt P38203;P57743;P40070;P40089;Q06406;P53905;P47093 …).
T1 sequence 1: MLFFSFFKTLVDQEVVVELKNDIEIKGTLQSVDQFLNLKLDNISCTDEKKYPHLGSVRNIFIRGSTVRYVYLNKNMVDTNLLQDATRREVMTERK
T1 sequence 2: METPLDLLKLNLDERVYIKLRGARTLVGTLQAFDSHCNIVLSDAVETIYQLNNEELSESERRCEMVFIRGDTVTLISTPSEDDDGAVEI
T1 sequence 3: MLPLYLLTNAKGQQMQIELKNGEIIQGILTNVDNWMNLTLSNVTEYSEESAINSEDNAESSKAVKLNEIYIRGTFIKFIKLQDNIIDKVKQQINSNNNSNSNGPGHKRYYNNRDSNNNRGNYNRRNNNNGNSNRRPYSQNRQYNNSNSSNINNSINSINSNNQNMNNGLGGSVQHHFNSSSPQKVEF
T1 sequence 4: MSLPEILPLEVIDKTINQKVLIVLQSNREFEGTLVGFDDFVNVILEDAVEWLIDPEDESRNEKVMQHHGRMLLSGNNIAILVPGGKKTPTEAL
T1 sequence 5: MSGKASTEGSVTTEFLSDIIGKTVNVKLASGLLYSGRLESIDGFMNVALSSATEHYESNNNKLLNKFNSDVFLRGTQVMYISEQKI
T1 sequence 6: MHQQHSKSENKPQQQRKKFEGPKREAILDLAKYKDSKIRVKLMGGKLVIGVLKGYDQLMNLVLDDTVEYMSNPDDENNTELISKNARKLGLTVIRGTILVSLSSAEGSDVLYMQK
T1 sequence 7: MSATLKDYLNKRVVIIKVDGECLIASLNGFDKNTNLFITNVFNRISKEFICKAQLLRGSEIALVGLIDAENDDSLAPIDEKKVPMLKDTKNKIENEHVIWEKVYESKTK
The data set can be described thus: EMSA. (In EMSA bound probe runs differently from free probe, usually more slowly.)

In data set [2] the target is T1, Lsm2-8 heteroheptameric ring. As to the kind of experiment: EMSA. This is another data set of the same source.

For the molecule UACAAAGAGAUUUAUUUCGUUUU (ssRNA, 3'-phosphate) [U6_WT], the binding result in data set [1] is “binds”.

B1: U6_WT/U2_WT helix II (dsRNA)
RNA 1: UACAAAGAGAUUUAUUUCGUUUU
RNA 2: ACGAAUCUCUUUGCCUUUUGGCUUAGAU
modifications: 3'-phosphate on U6
Consider B1, for which the binding result in data set [2] is “binds”.
